B1: SP/KLF wild-type (dsDNA)
DNA 1: GAGAGCCCCGCCCCCTGGCT
DNA 2: AGCCAGGGGGCGGGGCTCTC
B2: CTCF (dsDNA)
DNA 1: TCAGAGTGGCGGCCAGCAGGGGGCGCCCTTGCCAGA
DNA 2: TCTGGCAAGGGCGCCCCCTGCTGGCCGCCACTCTGA
B3: TEAD (dsDNA)
DNA 1: TCGGGACCCAGGCCTGGAATGTTTCCACC
DNA 2: GGTGGAAACATTCCAGGCCTGGGTCCCGA
B4: TATA-box (dsDNA)
DNA 1: GCGGCGCTCTATATAAGTGGGCAGTG
DNA 2: CACTGCCCACTTATATAGAGCGCCGC

Columns and labels:
Assay in all cases: pulldown; 150 mM NaCl, 50 mM Tris pH 8, 0.25% NP-40, 1 mM TCEP; 4 C, 2 h; 100 ug HeLa nuclear lysate
Settings in all cases: protein: extract; label: 5' biotin (strand 1)
KLF3 = KLF3 (Homo sapiens, UniProt P57682)
KLF3, sequence (P57682 whole entry): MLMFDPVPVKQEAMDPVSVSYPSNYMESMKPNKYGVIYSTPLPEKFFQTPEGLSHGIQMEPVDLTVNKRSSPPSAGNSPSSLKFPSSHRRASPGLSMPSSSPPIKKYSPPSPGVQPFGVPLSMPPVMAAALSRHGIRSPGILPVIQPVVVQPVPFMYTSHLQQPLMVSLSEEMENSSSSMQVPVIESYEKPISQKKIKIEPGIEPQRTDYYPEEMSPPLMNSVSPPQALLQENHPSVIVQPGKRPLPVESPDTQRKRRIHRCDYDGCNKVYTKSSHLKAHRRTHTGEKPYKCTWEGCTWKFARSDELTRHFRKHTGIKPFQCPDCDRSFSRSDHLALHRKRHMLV

SP3 = SP3 (Homo sapiens, UniProt Q02447)
SP3, sequence (Q02447 whole entry): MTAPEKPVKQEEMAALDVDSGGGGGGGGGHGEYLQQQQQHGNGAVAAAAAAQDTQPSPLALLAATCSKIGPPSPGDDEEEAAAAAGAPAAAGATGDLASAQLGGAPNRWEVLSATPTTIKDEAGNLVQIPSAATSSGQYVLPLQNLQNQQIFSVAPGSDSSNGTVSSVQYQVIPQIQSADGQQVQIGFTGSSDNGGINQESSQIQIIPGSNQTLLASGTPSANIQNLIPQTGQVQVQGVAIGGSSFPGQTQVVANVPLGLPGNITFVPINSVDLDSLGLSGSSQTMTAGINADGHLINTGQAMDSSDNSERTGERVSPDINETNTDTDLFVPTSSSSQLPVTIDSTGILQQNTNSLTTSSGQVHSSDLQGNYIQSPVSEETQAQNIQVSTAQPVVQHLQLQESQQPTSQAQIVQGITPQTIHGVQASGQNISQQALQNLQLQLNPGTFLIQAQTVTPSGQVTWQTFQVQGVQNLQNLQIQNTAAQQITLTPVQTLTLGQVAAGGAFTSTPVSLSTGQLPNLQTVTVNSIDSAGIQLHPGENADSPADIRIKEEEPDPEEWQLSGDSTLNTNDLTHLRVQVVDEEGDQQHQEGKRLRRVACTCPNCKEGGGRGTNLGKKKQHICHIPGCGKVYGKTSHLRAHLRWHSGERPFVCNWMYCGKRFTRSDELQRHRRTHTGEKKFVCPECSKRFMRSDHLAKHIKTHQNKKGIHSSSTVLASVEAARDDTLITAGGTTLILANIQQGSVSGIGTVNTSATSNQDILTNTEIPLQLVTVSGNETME

VEZF1 = biological target: T1, VEZF1 (Homo sapiens, UniProt Q14119)
T1 sequence: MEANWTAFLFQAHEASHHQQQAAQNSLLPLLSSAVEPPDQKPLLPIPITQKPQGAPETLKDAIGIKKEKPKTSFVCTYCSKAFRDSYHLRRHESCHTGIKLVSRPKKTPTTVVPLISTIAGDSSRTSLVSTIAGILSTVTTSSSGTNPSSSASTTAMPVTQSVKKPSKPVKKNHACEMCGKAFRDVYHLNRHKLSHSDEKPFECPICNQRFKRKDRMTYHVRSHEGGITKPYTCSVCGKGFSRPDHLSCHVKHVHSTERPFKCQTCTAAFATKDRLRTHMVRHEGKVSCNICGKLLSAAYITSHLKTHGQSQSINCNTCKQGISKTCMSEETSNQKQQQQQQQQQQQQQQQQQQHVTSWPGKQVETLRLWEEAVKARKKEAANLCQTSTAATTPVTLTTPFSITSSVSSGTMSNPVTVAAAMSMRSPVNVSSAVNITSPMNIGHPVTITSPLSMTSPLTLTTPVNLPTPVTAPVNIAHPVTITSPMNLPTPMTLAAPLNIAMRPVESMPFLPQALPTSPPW

ZBTB43 = biological target: T2, ZBTB43 (Homo sapiens, UniProt O43298)
T2 sequence: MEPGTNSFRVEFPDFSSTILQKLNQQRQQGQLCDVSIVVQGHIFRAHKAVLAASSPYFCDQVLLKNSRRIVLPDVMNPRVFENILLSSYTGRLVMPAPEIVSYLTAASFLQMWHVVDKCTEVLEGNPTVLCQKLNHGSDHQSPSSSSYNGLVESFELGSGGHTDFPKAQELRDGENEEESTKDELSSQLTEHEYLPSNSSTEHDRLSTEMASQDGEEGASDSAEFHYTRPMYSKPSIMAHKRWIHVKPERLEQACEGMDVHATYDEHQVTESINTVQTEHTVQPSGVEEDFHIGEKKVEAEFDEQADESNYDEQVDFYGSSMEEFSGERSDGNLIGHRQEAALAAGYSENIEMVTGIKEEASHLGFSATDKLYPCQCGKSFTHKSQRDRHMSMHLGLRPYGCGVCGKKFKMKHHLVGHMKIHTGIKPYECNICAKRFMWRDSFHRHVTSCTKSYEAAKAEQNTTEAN

ZBTB7B = ZBTB7B (Homo sapiens, UniProt O15156)
ZBTB7B, sequence (O15156 whole entry): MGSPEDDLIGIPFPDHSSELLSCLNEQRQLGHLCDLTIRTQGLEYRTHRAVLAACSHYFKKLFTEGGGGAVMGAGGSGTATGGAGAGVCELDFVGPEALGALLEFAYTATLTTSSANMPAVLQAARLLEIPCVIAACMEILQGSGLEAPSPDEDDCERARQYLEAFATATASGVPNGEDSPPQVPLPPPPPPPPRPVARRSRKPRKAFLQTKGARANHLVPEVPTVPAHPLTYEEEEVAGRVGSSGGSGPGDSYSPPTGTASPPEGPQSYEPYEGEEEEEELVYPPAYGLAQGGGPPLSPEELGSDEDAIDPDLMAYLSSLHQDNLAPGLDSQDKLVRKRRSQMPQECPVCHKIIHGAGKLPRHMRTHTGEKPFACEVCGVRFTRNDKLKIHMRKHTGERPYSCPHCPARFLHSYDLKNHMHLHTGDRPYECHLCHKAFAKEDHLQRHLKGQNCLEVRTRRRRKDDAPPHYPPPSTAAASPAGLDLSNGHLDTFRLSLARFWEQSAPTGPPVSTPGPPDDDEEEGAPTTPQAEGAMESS

SP4 = SP4 (Homo sapiens, UniProt Q02446)
KLF10 = KLF10 (Homo sapiens, UniProt Q13118)
KLF10, sequence (Q13118 whole entry): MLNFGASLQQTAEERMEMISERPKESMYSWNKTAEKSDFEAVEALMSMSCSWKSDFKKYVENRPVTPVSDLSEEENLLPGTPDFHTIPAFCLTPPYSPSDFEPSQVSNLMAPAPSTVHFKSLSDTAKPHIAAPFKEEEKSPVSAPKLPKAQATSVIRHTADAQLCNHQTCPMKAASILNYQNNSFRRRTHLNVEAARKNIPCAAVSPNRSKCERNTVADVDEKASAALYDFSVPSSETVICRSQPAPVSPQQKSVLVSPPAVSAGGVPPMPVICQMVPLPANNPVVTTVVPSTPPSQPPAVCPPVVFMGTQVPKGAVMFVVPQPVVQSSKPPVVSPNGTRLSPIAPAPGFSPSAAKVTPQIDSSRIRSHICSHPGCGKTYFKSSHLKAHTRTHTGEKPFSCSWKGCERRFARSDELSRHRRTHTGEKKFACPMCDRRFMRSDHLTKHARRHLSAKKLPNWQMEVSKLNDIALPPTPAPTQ

RBPJ = RBPJ (Homo sapiens, UniProt Q06330)
RBPJ, sequence (Q06330 whole entry): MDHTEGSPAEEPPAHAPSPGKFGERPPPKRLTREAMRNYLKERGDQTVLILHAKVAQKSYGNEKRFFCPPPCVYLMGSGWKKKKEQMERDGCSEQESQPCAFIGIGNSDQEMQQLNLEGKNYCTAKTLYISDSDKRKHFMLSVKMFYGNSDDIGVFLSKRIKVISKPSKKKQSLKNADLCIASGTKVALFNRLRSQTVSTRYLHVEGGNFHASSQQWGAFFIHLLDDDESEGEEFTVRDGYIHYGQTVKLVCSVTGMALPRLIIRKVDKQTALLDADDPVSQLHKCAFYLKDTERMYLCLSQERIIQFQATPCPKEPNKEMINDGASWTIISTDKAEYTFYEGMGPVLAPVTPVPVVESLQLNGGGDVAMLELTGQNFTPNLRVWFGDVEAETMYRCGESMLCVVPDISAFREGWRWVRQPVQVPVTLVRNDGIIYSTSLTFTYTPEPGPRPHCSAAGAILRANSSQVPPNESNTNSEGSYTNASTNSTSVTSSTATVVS

YY1 = YY1 (Homo sapiens, UniProt P25490)
NFIA = NFIA (Homo sapiens, UniProt Q12857)
NFIA, sequence (Q12857 whole entry): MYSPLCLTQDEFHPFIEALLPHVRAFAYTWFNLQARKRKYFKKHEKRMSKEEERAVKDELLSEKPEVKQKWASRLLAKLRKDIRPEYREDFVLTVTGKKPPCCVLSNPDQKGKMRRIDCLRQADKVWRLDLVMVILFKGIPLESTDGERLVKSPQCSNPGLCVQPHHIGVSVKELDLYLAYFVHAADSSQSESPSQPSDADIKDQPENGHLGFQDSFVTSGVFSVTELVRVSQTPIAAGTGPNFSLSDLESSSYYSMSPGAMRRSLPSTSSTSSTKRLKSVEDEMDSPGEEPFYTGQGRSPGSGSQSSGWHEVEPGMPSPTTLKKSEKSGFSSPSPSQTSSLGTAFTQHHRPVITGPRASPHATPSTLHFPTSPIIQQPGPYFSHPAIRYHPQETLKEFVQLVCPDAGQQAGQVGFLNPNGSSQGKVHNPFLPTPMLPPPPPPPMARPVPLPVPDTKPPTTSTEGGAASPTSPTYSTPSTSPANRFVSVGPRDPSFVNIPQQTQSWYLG

TEAD4 = TEAD4 (Homo sapiens, UniProt Q15561)
NFAT5 = NFAT5 (Homo sapiens, UniProt O94916)
NFAT5, sequence (O94916 whole entry): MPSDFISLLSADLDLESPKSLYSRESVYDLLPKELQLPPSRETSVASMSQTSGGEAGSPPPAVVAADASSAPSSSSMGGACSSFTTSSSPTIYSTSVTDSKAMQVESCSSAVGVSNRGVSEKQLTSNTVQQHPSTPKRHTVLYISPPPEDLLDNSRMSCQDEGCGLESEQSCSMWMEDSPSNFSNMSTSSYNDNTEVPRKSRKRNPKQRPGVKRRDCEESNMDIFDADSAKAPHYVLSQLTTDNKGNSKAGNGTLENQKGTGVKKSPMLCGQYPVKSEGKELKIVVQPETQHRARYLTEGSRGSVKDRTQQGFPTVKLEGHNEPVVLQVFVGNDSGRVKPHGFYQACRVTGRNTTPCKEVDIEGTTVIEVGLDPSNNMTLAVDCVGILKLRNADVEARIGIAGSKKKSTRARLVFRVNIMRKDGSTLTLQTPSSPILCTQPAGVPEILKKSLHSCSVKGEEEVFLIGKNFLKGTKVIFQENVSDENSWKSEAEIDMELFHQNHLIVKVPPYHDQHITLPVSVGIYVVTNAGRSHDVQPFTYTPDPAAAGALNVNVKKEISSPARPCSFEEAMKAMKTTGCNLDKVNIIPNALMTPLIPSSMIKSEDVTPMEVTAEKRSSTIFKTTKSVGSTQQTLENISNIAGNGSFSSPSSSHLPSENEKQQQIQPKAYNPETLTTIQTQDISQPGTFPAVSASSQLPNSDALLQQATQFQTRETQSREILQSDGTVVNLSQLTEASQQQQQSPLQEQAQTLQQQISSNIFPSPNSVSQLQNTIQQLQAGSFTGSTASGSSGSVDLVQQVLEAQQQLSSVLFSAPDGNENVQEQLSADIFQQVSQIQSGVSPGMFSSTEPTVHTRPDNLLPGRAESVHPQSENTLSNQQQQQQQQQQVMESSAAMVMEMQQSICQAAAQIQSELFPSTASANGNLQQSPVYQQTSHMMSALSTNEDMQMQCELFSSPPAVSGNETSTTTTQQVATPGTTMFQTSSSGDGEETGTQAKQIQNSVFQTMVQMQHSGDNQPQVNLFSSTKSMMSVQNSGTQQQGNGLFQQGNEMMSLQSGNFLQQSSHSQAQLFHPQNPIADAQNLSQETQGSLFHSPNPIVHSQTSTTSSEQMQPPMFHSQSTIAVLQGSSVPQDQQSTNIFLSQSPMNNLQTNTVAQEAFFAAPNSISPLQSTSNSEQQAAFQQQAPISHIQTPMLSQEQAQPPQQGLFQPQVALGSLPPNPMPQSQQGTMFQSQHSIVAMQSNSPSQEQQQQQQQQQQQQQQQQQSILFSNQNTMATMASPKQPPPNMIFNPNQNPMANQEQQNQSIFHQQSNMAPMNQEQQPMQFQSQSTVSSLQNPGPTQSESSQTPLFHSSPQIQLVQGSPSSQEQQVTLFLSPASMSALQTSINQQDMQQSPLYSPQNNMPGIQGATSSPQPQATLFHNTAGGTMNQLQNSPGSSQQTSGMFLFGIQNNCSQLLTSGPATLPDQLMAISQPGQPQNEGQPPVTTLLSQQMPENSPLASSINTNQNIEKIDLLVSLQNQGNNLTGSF

FOXL2 = biological target: T3, FOXL2 (Homo sapiens, UniProt P58012)
T3 sequence: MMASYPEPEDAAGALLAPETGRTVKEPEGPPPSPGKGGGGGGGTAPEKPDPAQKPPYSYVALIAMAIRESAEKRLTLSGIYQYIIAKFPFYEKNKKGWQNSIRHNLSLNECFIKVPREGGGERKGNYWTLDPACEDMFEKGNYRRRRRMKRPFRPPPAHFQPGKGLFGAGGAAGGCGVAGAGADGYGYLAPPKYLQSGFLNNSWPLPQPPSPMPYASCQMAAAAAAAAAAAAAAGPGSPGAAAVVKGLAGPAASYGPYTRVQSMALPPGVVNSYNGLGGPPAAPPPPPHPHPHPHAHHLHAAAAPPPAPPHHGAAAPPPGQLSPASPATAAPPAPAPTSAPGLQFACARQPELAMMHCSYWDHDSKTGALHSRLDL

Row | Binder | apparent K (half saturation) (KLF3) | apparent K (half saturation) (SP3) | apparent K (half saturation) (VEZF1) | apparent K (half saturation) (ZBTB43) | apparent K (half saturation) (ZBTB7B) | apparent K (half saturation) (SP4) | apparent K (half saturation) (KLF10) | apparent K (half saturation) (RBPJ) | apparent K (half saturation) (YY1) | apparent K (half saturation) (NFIA) | apparent K (half saturation) (TEAD4) | apparent K (half saturation) (NFAT5) | apparent K (half saturation) (FOXL2)
1 | B1 | 61.9 nM | 19.3 nM | 182 nM | – | – | – | – | – | – | – | – | – | –
2 | B2 | 124 nM | 72 nM | 34.1 nM | 347 nM | 39.2 nM | 41.3 nM | 41.2 nM | 376 nM | 400 nM | 72.8 nM | – | – | –
3 | B3 | – | – | 225 nM | – | – | – | – | 208 nM | – | 119 nM | 15.3 nM | 94.6 nM | 140 nM
4 | B4 | – | – | 227 nM | – | 230 nM | – | 84.5 nM | – | – | – | – | – | 140 nM
